Measurements: patent US20220204567A1 (published 2022)

Key:
Experiment in all cases: ELISA
[1] = molecular target: UFV4239, wild type HA ectodomain of H1 A/California/07/2009 without Foldon trimerization domain
[2] = molecular target: wild type HA ectodomain of H3 A/Hong Kong/1/1968 with C-terminal Foldon trimerization domain
[3] = molecular target: wild type HA ectodomain of H1 A/Michigan/45/2015 with C-terminal Foldon trimerization domain
[4] = molecular target: wild type HA ectodomain of H3 A/Indiana/11/2011 with C-terminal Foldon trimerization domain

| Binder | EC50 [1] [nM] | EC50 [2] [nM] | EC50 [3] [nM] | EC50 [4] [nM] |
| --- | --- | --- | --- | --- |
| CR6261 (antibody, V domains shown) VH: EVQLVESGAEVKKPGSSVKVSCKASGGPFRSYAISWVRQAPGQGPEWMGGIIPIFGTTKYAPKFQGRVTITADDFAGTVYMELSSLRSEDTAMYYCAKHMGYQVRETMDVWGKGTTVTVSS VL: QSVLTQPPSVSAAPGQKVTISCSGSSSNIGNDYVSWYQQLPGTAPKLLIYDNNKRPSGIPDRFSGSKSGTSATLGITGLQTGDEANYYCATWDRRPTAYVVFGGGTKLTVL | 1 | > 70 | 0.6 | > 70 |
| CR8020 (antibody, V domains shown) VH: QVQLQQSGAEVKTPGASVKVSCKASGYTFTSFGVSWIRQAPGQGLEWIGWISAYNGDTYYAQKFQARVTMTTDTSTTTAYMEMRSLRSDDTAVYYCAREPPLFYSSWSLDNWGQGTLVTVSS VL: EIVLTQSPGTLSLSPGERATLSCRASQSVSMNYLAWFQQKPGQAPRLLIYGASRRATGIPDRISGSGSGTDFTLTISRLEPADFAVYYCQQYGTSPRTFGQGAKVEIK | > 70 | 1.6 | > 70 | 1.9 |
| CR9114 (antibody, V domains shown) VH: QVQLVQSGAEVKKPGSSVKVSCKSSGGTSNNYAISWVRQAPGQGLDWMGGISPIFGSTAYAQKFQGRVTISADIFSNTAYMELNSLTSEDTAVYFCARHGNYYYYSGMDVWGQGTTVTVSS VL: SYVLTQPPAVSGTPGQRVTISCSGSDSNIGRRSVNWYQQFPGTAPKLLIYSNDQRPSVVPDRFSGSKSGTSASLAISGLQSEDEAEYYCAAWDDSLKGAVFGGGTQLTVL | – | 12.7 | – | 25 |
